Reference: publication PMC5095173, “Disulfide-activated protein kinase G Iα regulates cardiac diastolic relaxation and fine-tunes the Frank–Starling response” (Nature Communications, 2016)

B1: Pfkl pS775 (protein, UniProt P30835 2-780, looked up)
ATP-dependent …: ATVDLEKLRMSGAGKAIGVLTSGGDAQGMNAAVRAVTRMGIYVGAKVFLIYEGYEGLVEGGENIKPANWLSVSNIIQLGGTIIGSARCKAFTTREGRLAAAYNLLQHGITNLCVIGGDGSLTGANIFRNEWGSLLEELVKEGKISESTAQNYAHLSIAGLVGSIDNDFCGTDMTIGTDSALHRIMEVIDAITTTAQSHQRTFVLEVMGRHCGYLALVSALASGADWLFIPEAPPEDGWENFMCERLGETRSRGSRLNIIIIAEGAIDRHGKPISSSYVKDLVVQRLGFDTRVTVLGHVQRGGTPSAFDRVLSSKMGMEAVMALLEATPDTPACVVSLSGNQSVRLPLMECVQVTKDVQKAMDEKRFDEAIQLRGRSFENNWKIYKLLAHQKVSKEKSNFSLAILNVGAPAAGMNAAVRSAVRTGISEGHTVYVVHDGFEGLAKGQVQEVGWHDVAGWLGRGGSMLGTKRTLPKPHLEAIVENLRTYNIHALLVIGGFEAYEGVLQLVEARGRYEELCIVMCVIPATISNNVPGTDFSLGSDTAVNAAMESCDRIKQSASGTKRRVFIVETMGGYCGYLATVTGIAVGADAAYVFEDPFNIHDLKANVEHMTEKMKTDIQRGLVLRNEKCHEHYTTEFLYNLYSSEGRGVFDCRTNVLGHLQQGGAPTPFDRNYGTKLGVKAMLWMSEKLRDVYRKGRVFANAPDSACVIGLRKKVVAFSSVTELKKETDFEHRMPREQWWLNLRLMLKMLAHYRISMADYVSGELEHVTRRTLSIDKGF
modifications: phosphorylated at S775
B2: Fdx1 pS181 (protein, UniProt P24483 65-188, looked up)
Adrenodoxin, mitochondrial: SSSEDKVTVHFKNRDGETLTTKGKVGDSLLDVVIENNLDIDGFGACEGTLACSTCHLIFEDHIYEKLDAITDEENDMLDLAFGLTNRSRLGCQVCLTKAMDNMTVRVPEAVADVRQSVDMSKNS
modifications: phosphorylated at S181
B3: Akap1 pS103 (protein, UniProt O88884 30-854, looked up)
A-kinase anchor protein 1, …: KDRLSSNGKQVGTLKVGPAIEDRLPTEEACPGVLSVTPSVTQPPGKEEQRSMDRPLSDPPALPRTRQVRRRSESSGNLPSIVDTRLQAGQCSDENSKVVLSLMGDEAKSIPLGRPLFPKDLSFPYEAVEGCKQESALGRTPGRGWLSQCAASGENARETGGAEGTGDAVLGESVLEEGLLPQECVSEVEKSEFPILAPGGGGGEKVRSGPPQVDELLKKEEYIVGKLPSSFVGPVHSELVKDEGALVPQVKGSQDRSLARELDKDKTLPEKDQIEQTAFQIISQVILEATEEIRATTVGKTVAQVHPTPGTQPQGQEESCVPASQETSLGQEIPDPASTRTGATASPSAGAPPPKTYVSCLSSPLSGPTKDQKPKNSAHHISLAPCPPPVTPQRQSLDGASNPRGDDTFVTCTSNNSQSVLSVTSLGLCSDPVSTSRLEDSCTETISSSGDKAVTPPLPDSTEPFSNGVLKEELSDLGTEDGWTMDTEADHSGGSDGNSMDSVDSCCGLTKPDSPQTVQAGSNPKKVDLIIWEIEVPKHLVGRLIGKQGRYVSFLKQTSGAKIYISTLPYTQNIQICHIEGSQHHVDKALNLIGKKFKELNLTNIYAPPLPSLALPSLPMTSWLMLPDGITVEVIVVNQVNAGHLFVQQHTHPTFHALRSLDQQMYLCYSQPGIPTLPTPVEITVICAAPGADGAWWRAQVVASYEETNEVEIRYVDYGGYKRVKVDVLRQIRSDFVTLPFQGAEVLLDSVVPLSDDDHFSPEADAAMSEMTGNTALLAQVTSYSATGLPLIQLWSVVGDEVVLINRSLVERGLAQWVDSCYASL
modifications: phosphorylated at S103
B4: 6-phosphofructokinase, liver type: PKGIα substrate, phospho site S775 (protein, UniProt P30835 2-780, looked up)
ATP-dependent …: B1 ATP-dependent …
modifications: phosphorylated at S775
B5: C-1-tetrahydrofolate synthase, cytoplasmic: PKGIα substrate, phospho site T545 (protein, UniProt P27653 1-935, looked up)
C-1-tetrahydrofolate …: MAPAGILNGKVVSAQIRNRLKTQVTQMQEQVPGFTPGLAILQVGDRDDSNLYINVKLKAAQEIGIKATHIKLPRTSTESEVLKYVISLNEDATVHGFIVQLPLDSENSINTEAVINAIAPEKDVDGLTSINAGKLARGDLKDCFIPCTPKGCLELIKETGVQIAGRHAVVVGRSKIVGAPMHDLLLWNNATVTTCHSKTADLDKEVNKGDILVVATGQPEMVKGEWIKPGAVVIDCGINYVPDDTKPNGRKVVGDVAYDEAKEKASFITPVPGGVGPMTVAMLMQSTVESAQRFLKKFKPGKWTIQYNKLNLKTPVPSDIAISRSCKPKLIGNLAREIGLLTEEVELYGETKAKVLLSALDRLKHQPDGKYVVVTGITPTPLGEGKSTTTIGLVQALGAHLHQNVFACVRQPSQGPTFGIKGGAAGGGYSQVIPMEEFNLHLTGDIHAITAANNLVAAAIDARIFHELTQTDKALFNRLVPSVNGVRKFSDIQIRRLRRLGIEKTDPAALTDDEINRFARLDIDPETITWQRVLDTNDRFLRKITIGQAPTEKGHTRTAQFDISVASEIMAVLALTSSLEDMRARLGKMVVASSKKGEPISCEDLGVSGALTVLMKDAIKPNLMQTLEGTPVFVHAGPFANIAHGNSSIIADRIALKLVGPEGFVVTEAGFGADIGMEKFFNIKCRYSGLQPHVVVLVATVRALKMHGGGPTVTAGLPLPKAYTEEDLDLVEKGFSNLRKQIENARMFGVPVVVAMNAFKTDTDTELDLIGRLSREHGAFDAVKCTHWAEGGQGALALAQAVQRASQAPSSFQLLYDLKLSVEDKIRIIAQKIYGADDIELLPEAQNKAEIYTKQGFGNLPICMAKTHLSLSHNPEQKGVPTGFVLPIRDIRASVGAGFLYPLVGTMSTMPGLPTRPCFYDIDLDPETEQVNGLF
modifications: phosphorylated at T545
B6: Alpha-2-macroglobulin receptor-associated protein: PKGIα substrate, phospho site S245 (protein, UniProt Q99068 34-360, looked up)
Alpha-2-macroglobulin …: HGGKYSREKNEPEMAAKRESGEEFRMEKLNQLWEKAKRLHLSPVRLAELHSDLKIQERDELNWKKLKVEGLDGDGEKEAKLVHNLNVILARYGLDGRKDTQTVHSNALNEDTQDELGDPRLEKLWHKAKTSGKFSSEELDKLWREFLHYKEKIHEYNVLLDTLSRAEEGYENLLSPSDMTHIKSDTLASKHSELKDRLRSINQGLDRLRKVSHQGYGPATEFEEPRVIDLWDLAQSANFTEKELESFREELKHFEAKIEKHNHYQKQLEISHQKLKHVESIGDPEHISRNKEKYVLLEEKTKELGYKVKKHLQDLSSRVSRARHNEL
modifications: phosphorylated at S245

The molecules below were run on PKGIα (analogue-sensitive M438G), disulfide-activated (assay: Chemical genetic phosphoproteomic screen, disulfide-activated PKGIα M438G versus unactivated control). Conditions: control = PKGIα C42S/M438G.
Assay type: biochemical, human PKGIα; substrates in rat heart homogenate
Method in brief: (§1)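 Analogue-sensitive human PKGIα mutants (M438G, air-oxidized to disulfide dimer; C42S/M438G, cGMP-activated), expressed in 293-F cells, thiophosphorylate substrates in rat left-ventricle lysate (20 mg ml) using N6-alkylated ATPγS. Thiophosphopeptides are recovered by covalent capture and identified with sites by LC–MS/MS, each compared against an unactivated control.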

Molecule	log2 fold change Disulfide vs Control
B1	1.482
B2	2.723
B3	0.8425

Same assay, conditions: disulfide-activated PKGIα M438G vs basal; 1 h, 30 °C, pH 7.5, rat heart homogenate; label-free LC–MS/MS; n=4; * P<0.05 Dunnett: only phospholamban S16

Molecule	Log2 fold change in phosphorylation, Disulfide versus control
B4	1.48
B5	1.48
B6	0.32

The molecules below were run on PKGIα (analogue-sensitive C42S/M438G), cGMP-activated (assay: Chemical genetic phosphoproteomic screen, cGMP-activated PKGIα C42S/M438G versus unactivated control). Conditions: PKGIα C42S/M438G + 100 μM cGMP vs basal; 1 h, 30 °C, pH 7.5, rat heart homogenate; label-free LC–MS/MS; n=4; * P<0.05 Dunnett: all values except phospholamban S16.
Assay type: biochemical, human PKGIα; substrates in rat heart homogenate
Method in brief: as §1

Molecule	Log2 fold change in phosphorylation, cGMP versus control
B4	4.13*
B5	3.68*
B6	2.64*

Same assay, conditions: control = PKGIα C42S/M438G

Molecule	log2 fold change cGMP vs Control
B1	4.1288
B2	5.584
B3	1.156
